From patent publication US20230330253A1 (LANOVA MEDICINES, published 2023) come the findings set out here.

What all share (test): cell-based or functional assay
Assay [1] addresses human claudin 18.2 (CLDN18.2) (human).
For assay [2] the target is unchanged. The source holds these as a separate data set.
Assay [3] has the same target. This is another data set of the same source.

B1: 4F11E2 HC N55E-LC S32A (BG2001-C) (humanized, PTM de-risked, No. 3) (antibody, V domains shown)
VH: EVQLVESGGGLVQPGGSLRLSCAASGFTFSTFGMHWVRQAPGKGLEWVSYITSGESPIYFTDTVKGRFTISRDNAKNSLYLQMNSLRAEDTAVYYCARSSYYGNSMDYWGQGTLVTVSS
VL: DIVMTQSPDSLAVSLGERATINCRSSQSLLNAGNRKNYLTWYQQKPGQPPKLLIYWASTRESGVPDRFSGSGSGTDFTLTISSLQAEDVAVYYCQNAYSYPFTFGGGTKLEIK
Take B1: in assay [1], the “Fluorescence, pHAb internalization on MKN45-CLDN18.2 cells, 20 nM antibody, normalized by DAR” value (“Fluorescence … 20 nM antibody, normalized by DAR” for short) was 19000 and the “Fluorescence, pHAb internalization on MKN45-CLDN18.2 cells, 100 nM antibody, normalized by DAR” value was 28200. For the same molecule, the “EC50, ADCC Reporter Bioassay (luciferase)” value (“EC50 … (luciferase)” for short) in assay [2] worked out at 0.148 nM.

B2: 120B7B2 HC G57D&S104A-LC S32A&G97A (BG2001-E) (humanized, PTM de-risked, No. 7) (antibody, V domains shown)
VH: QVQLVQSGAEVKKPGASVKVSCKASGYTFTGYIIQWVRQAPGQRLEWMGFINPYNDDTKYNEQFKGRVTITRDTSASTAYMELSSLRSEDTAVYYCARAYFGNAFAYWGQGTLVTVSS
VL: DIVMTQSPDSLAVSLGERATINCKSSQSLLNAGNQKNYLTWYQQKPGQPPKLLIYWASTRESGVPDRFSGSGSGTDFTLTISSLQAEDVAVYYCQNAYYFPFTFGGGTKLEIK
As for B2, in assay [1], the “Fluorescence … 20 nM antibody, normalized by DAR” value came out at 19200 and the “Fluorescence, pHAb internalization on MKN45-CLDN18.2 cells, 100 nM antibody, normalized by DAR” value was determined as 31300. In addition, the “EC50 … (luciferase)” value in assay [2] turned out to be 0.114 nM.

B3: 72C1B6A3 HC WT-LC S32A (BG2001-D) (humanized, PTM de-risked, No. 5) (antibody, V domains shown)
VH: QVQLVQSGAEVKKPGASVKVSCKASGYTFTTYPIEWVRQAPGQRLEWMGNFHPYNDDTKYNEKFKGRVTITRDTSASTAYMELSSLRSEDTAVYYCARRAYGYPYAMDYWGQGTLVTVSS
VL: DIVMTQSPDSLAVSLGERATINCKSSQSLLNAGNQKNYLTWYQQKPGQPPKLLIYRASSRESGVPDRFSGSGSGTDFTLTISSLQAEDVAVYYCQNDYIYPYTFGGGTKLEIK
For B3, in assay [1], the “Fluorescence … 20 nM antibody, normalized by DAR” value turned out to be 26200 and the “Fluorescence, pHAb internalization on MKN45-CLDN18.2 cells, 100 nM antibody, normalized by DAR” value stood at 36500. In addition, the “EC50 … (luciferase)” value in assay [2] was found to be 0.191 nM.

B4: 175D10 (IMAB362; claudiximab) (antibody, V domains shown)
VH: QVQLQQPGAELVRPGASVKLSCKASGYTFTSYWINWVKQRPGQGLEWIGNIYPSDSYTNYNQKFKDKATLTVDKSSSTAYMQLSSPTSEDSAVYYCTRSWRGNSFDYWGQGTTLTVSS
VL: DIVMTQSPSSLTVTAGEKVTMSCKSSQSLLNSGNQKNYLTWYQQKPGQPPKLLIYWASTRESGVPDRFTGSGSGTDFTLTISSVQAEDLAVYYCQNDYSYPFTFGSGTKLEIK
For B4, in assay [1], the “Fluorescence … 20 nM antibody, normalized by DAR” value was 7950 and the “Fluorescence, pHAb internalization on MKN45-CLDN18.2 cells, 100 nM antibody, normalized by DAR” value is 18900. In addition, in assay [2], the “EC50 … (luciferase)” value worked out at 0.158 nM. Further, the “EC50, ADCC Reporter Bioassay (luciferase, Jurkat FcγRIIIa V158/NFAT effector cells)” value in assay [3] was 0.459 nM.
